Measured values as given in publication doi:10.1101/2025.09.09.675085 (bioRxiv, 2025).
Read-outs that look alike come from different tables or passages of the source.

Key:
crystal structure [1] = molecular target: the molecule itself; experiment: crystal structure
crystal structure [2] = molecular target: the molecule itself; experiment: crystal structure; remark: listed apart in the source

| Protein | stoichiometry N (crystal structure [1]) | stoichiometry N (crystal structure [2]) |
| --- | --- | --- |
| Selenomethionine-labelled tagless TipA (residues 26-572) (natural protein, Bdellovibrio bacteriovorus HD100, UniProt Q6MK73 26-572, looked up, selenomethionine-labelled) ITDANPQIANKHLMPNAVRVQITQRGMKYFDNRLSDILGNLGVKLDEGYFPAMSYTAEKPINMDDFMDANPEMVKMYQQVRGLLTQWLVGFSMNDHQPTIEIGESGYVAKFSRFGLVTDELLMEALGKRDGAILAIELEVKKLTISTQSVVAWDTQNEFLGKAGFEDVTLQAADEEMPLKIRLPFYLRMNAMGGLEFEALEISNNFDSIPLGLKYGRLIVPQFAVEVNGKKFYVNNAELEKLFQAQAPMILEKVRGSIGDFARTQLPAMLNQKAKEFLGGSLEQVQDMAAPGQEPTDTRPAFKWGLQLQNLNLKKSLNVDLTTYVEDPVNSRSAPVKSHASRGAPTFNAVAQENYDIGLSVDRALINRVLQLAFERRNFEQIKQSDGSVLKLVATPLIDYVKTPAGVAVKPTETFVKLRVSVEIQPGSMFLKKTIVVDFDIIAKLRQLSDKTGMQMLLHSIDTDSLYLDDKYISVAGKLFKGKVREGVKDELKKRSANWATTEESLPGGLPLPPQILGIKLDINRVMMDPNGHLIMYLDYAKTGANK | 2 | – |
| TipA-His (TULIP invasion protein A, Bd2538, residues 26-572 with C-terminal octa-His tag) (natural protein, Bdellovibrio bacteriovorus HD100, UniProt Q6MK73 26-572, looked up) ITDANPQIANKHLMPNAVRVQITQRGMKYFDNRLSDILGNLGVKLDEGYFPAMSYTAEKPINMDDFMDANPEMVKMYQQVRGLLTQWLVGFSMNDHQPTIEIGESGYVAKFSRFGLVTDELLMEALGKRDGAILAIELEVKKLTISTQSVVAWDTQNEFLGKAGFEDVTLQAADEEMPLKIRLPFYLRMNAMGGLEFEALEISNNFDSIPLGLKYGRLIVPQFAVEVNGKKFYVNNAELEKLFQAQAPMILEKVRGSIGDFARTQLPAMLNQKAKEFLGGSLEQVQDMAAPGQEPTDTRPAFKWGLQLQNLNLKKSLNVDLTTYVEDPVNSRSAPVKSHASRGAPTFNAVAQENYDIGLSVDRALINRVLQLAFERRNFEQIKQSDGSVLKLVATPLIDYVKTPAGVAVKPTETFVKLRVSVEIQPGSMFLKKTIVVDFDIIAKLRQLSDKTGMQMLLHSIDTDSLYLDDKYISVAGKLFKGKVREGVKDELKKRSANWATTEESLPGGLPLPPQILGIKLDINRVMMDPNGHLIMYLDYAKTGANK | – | 2 |
